Columns and labels:
Experiment in all cases: IEDB peptide-MHC binding, purified MHC/direct/fluorescence; filed as Kd, often an IC50 or EC50 that approximates it; ≥ and ≤ were set here for values at or beyond the usual limits of such assays
Conditions in all cases: source organism: Vibrio cholerae V52
HLA-A*02:01 = biological target: HLA-A*02:01
HLA-A*02:03 = biological target: HLA-A*02:03
HLA-A*02:12 = biological target: HLA-A*02:12
HLA-A*03:01 = biological target: HLA-A*03:01
HLA-A*26:01 = biological target: HLA-A*26:01
HLA-A*29:02 = biological target: HLA-A*29:02
HLA-B*15:01 = biological target: HLA-B*15:01
HLA-B*15:17 = biological target: HLA-B*15:17

Measured: Kd

MGMEQTMSV
≥ 20 µM: all assays above

From the Immune Epitope Database (IEDB)
